According to paper PMC3498381, “Isolated Toll-like Receptor Transmembrane Domains Are Capable of Oligomerization” (PLoS ONE, 2012):
Numbering of substitutions follows the chain as printed. Names may count otherwise. No end group written: not given here.

B1: TLR10 transmembrane domain (ToxR chimera) (domain or fragment, human)
chain: GNRASALLIVTIVVIMLVLGLAVAFCCLGSLIN
notes: flank encoded by the reading frame of the plasmid construct; Toll-like receptor 10 transmembrane domain, human, as identified by hydrophobic analysis; One molecule for the ToxR and the ToxR* form of this TMD; also called TLR10 TMD; source: E. coli FHK12, transformed with pTox7 or pTox6 plasmid, in the cells' membrane
B2: TLR2 transmembrane domain (ToxR chimera) A597V (peptide)
chain: GNRASALVSGMCCVLFLLILLTGVLCGSLIN
B3: TLR2 transmembrane domain (ToxR chimera) (domain or fragment)
chain: B2 chain with V14A
notes: flank encoded by the reading frame of the plasmid construct; Toll-like receptor 2 transmembrane domain, human, as identified by hydrophobic analysis; One molecule for the ToxR and the ToxR* form of this TMD; also called TLR2 TMD; wild type TLR2 TMD; source: E. coli FHK12, transformed with pTox7 or pTox6 plasmid, in the cells' membrane
B4: TLR2 transmembrane domain (ToxR chimera) G593V (peptide)
chain: B2 chain with G10V, V14A
B5: TLR1 transmembrane domain (ToxR chimera) (domain or fragment)
chain: GNRASITLLIVTIVATMLVLAVTVTSLCSYLGSLIN
notes: flank encoded by the reading frame of the plasmid construct; Toll-like receptor 1 transmembrane domain, human, as identified by hydrophobic analysis; One molecule for the ToxR and the ToxR* form of this TMD; also called TLR1 TMD; source: E. coli FHK12, transformed with pTox7 or pTox6 plasmid, in the cells' membrane
B6: TLR6 transmembrane domain (ToxR chimera) (domain or fragment)
chain: B5 chain with V14G, S29I
notes: flank encoded by the reading frame of the plasmid construct; Toll-like receptor 6 transmembrane domain, human, as identified by hydrophobic analysis; One molecule for the ToxR and the ToxR* form of this TMD; also called TLR6 TMD; source: E. coli FHK12, transformed with pTox7 or pTox6 plasmid, in the cells' membrane

Columns and labels:
[1] = tested on: homotypic TMD-TMD interaction (ToxR / ctx promoter / β-galactosidase reporter in FHK12 E. coli); assay: Homotypic ToxR reporter assay (β-galactosidase); format: cell-based; conditions: homotypic ToxR assay, compared with wild type TLR2 TMD (Fig. 7A)
Protocol: . Various plasmid constructs for this assay make it possible to monitor both homotypic and heterotypic interactions that are driven by TMD-TMD association (Fig. S1).
We first investigated homotypic interactions because the majority of the TLR family members function as homodimers. […] This ΔTM construct consists of the same maltose binding protein and ToxR domain, but lacks a TMD for proper membrane insertion (Fig. S2). Statistical analysis using the Tukey-Kramer test was performed to analyze any significant differences between all possible pairs of average interaction potentials (Table S2). […] Among the TLRs, no discernable differences in grouping based on statistical analysis at p = 0.05 were indicated as all receptors belonged to multiple groups, except for TLR1, which with the lowest interaction potential among the family of receptors only existed in one group (Table S1).
Figure 2 Toll-like Receptor Transmembrane Domain Homotypic Interactions. (A) The ToxR assay was used to study homotypic interactions of the TLR TMDs. A chimeric protein expressing the TMD of interest was monitored through β-galactosidase activity. In all cases, we saw that the TLRs have interaction potential solely from TMD-TMD interactions. Each TLR TMD interaction measurement analysis was performed on 3 technical replicates with >6 measurements for each replicate. Error bars depict the standard error of the mean (n – Table S1). Western blots staining for MBP were performed to monitor expression levels of the constructs – (B) chimeric maltose binding protein expression, (C) endogenous maltose binding protein expression. All samples were normalized to the GpA signal and expression levels.
Briefly, the ToxR plasmids containing the TMD of interest (200 ng) were transformed into chemically competent FHK12 E. coli (200 µL) by incubating on ice for 30 min, heat shock at 42°C for 90 s, incubation on ice for 2 min, and addition of SOC media (800 µL) followed by incubation with shaking for 1 h at 37°C. This transformation mixture (50 µL) was then spread on LB agar plates containing cholaramphenicol (30 µg/mL) and ampicillin (100 µg/mL) and grown overnight at 37°C. Single colonies were selected from the plates in triplicate and added to 5 mL of LB media containing cholaramphenicol (30 µg/mL), ampicillin (100 µg/mL), and arabinose (0.0025%). These cultures were incubated overnight (16–20 h) with shaking at 37°C. The β-galactosidase activity was monitored using a Beckman Coulter DTX 880 plate-reader. First 5 µL of each culture was plated >6 times in a clear 96-well flat bottom culture plate (Sarstedt) containing 100 µL of Z-buffer/chloroform (1% β-mercaptoethanol, 10% chloroform, 89% Z buffer: […], 10 mM potassium chloride, 1 mM magnesium sulfate, pH 7.0). The cell densities of each well were recorded by measuring the OD595. Bacteria were lysed by the addition of 50 µL Z-buffer/SDS (1.6% sodium dodecyl sulfate w/v in Z-buffer) and shaking at 28°C for 10 min. Enzymatic activity was measured by adding 50 µL of Z-buffer/ortho-Nitrophenyl-β-[…] (ONPG) (0.4% ONPG w/v in Z-buffer) and monitoring the reaction at 405 nm for a period of 20 min at 30 s intervals. Miller units were calculated using the equation: [drawing 1]
Western blotting was performed with antiserum recognizing the maltose-binding protein moiety of the constructs (Abcam). Data were normalized to GpA Miller Units and protein expression levels using ImageJ (NIH) as reported previously.

[2] = tested on: heterotypic interactions of the TLR2 TMD; assay: Heterotypic ToxR assay of TLR2 point mutants; format: cell-based, E. coli; conditions: compared with native TLR2 TMD (Fig. 7B)
Text: To investigate if these residues were involved in the homotypic or heterotypic interactions we performed site-directed mutagenesis at key positions in the TLR2 TMD – Gly593Val, Ala597Val, and Cys609Ile – and tested these mutants in both homotypic and heterotypic ToxR assays.
Figure 7 Toll-like Receptor 2 Interaction Interface Studied by Mutagenesis. TLR2 residues were mutated to study effects on homotypic and heterotypic interactions using the ToxR assay. These mutations were at positions identified in the sequence as likely interaction locations. (A) Homotypic interactions of point mutations show no difference in interaction potential from wild-type TLR2 TMD. (B) Heterotypic interactions of point mutations show the potential importance of both the Ala597 and Cys609 positions for heterotypic interactions. […]
For heterotypic interactions one plasmid containing a functional ToxR domain (200 ng) and a second plasmid containing a non-functional ToxR* domain (200 ng) were co-transformed into chemically competent FHK12 E. coli (400 µL) by incubating on ice for 30 min, heat shock at 42°C for 90 s, incubation on ice for 2 min, and addition of SOC media (1600 µL) followed by incubation with shaking for 1 h at 37°C. […] Analysis of activity was monitored as described in homotypic ToxR assays. […]

[3] = target: B6; assay: dominant-negative ToxR reporter assay; heterotypic; one TMD with functional ToxR (dominant phenotype) and one with non-functional ToxR* (negative phenotype) co-expressed in E. coli FHK12; interaction read as reduction of β-galactosidase signal; normalised to poly-Leu* and to expression levels; conditions: partners not purified
[4] = target: B5; assay: as above; conditions: partners not purified
[5] = target: B3; assay: as above; conditions: partners not purified
[6] = target: T1, TLR2 transmembrane domain A597V (ToxR chimera), O60603; assay: homotypic ToxR assay; conditions: chain shown with the change; higher signal = more homotypic TMD association; parent: est. 1.0; read off a plot
T1 chain: B2 chain

[7] = target: T2, TLR2 transmembrane domain (ToxR chimera); assay: heterotypic ToxR assay; conditions: chain shown with the change; competitor TLR2* (nonfunctional ToxR* chimera); PolyLeu* = 1.0; lower signal = more ToxR inhibition = more interaction; parent: est. 0.42; read off a plot
T2 chain: B2 chain with V14A

[8] = target: T3, TLR4 transmembrane domain (ToxR chimera); assay: heterotypic ToxR assay; conditions: chain shown with the change; competitor TLR4* (nonfunctional ToxR* chimera); PolyLeu* = 1.0; lower signal = more ToxR inhibition = more interaction; parent: est. 0.90; read off a plot
T3 chain: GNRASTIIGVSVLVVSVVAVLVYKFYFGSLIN

[9] = target: T4, TLR10 transmembrane domain (ToxR chimera); assay: heterotypic ToxR assay; conditions: chain shown with the change; competitor TLR10* (nonfunctional ToxR* chimera); PolyLeu* = 1.0; lower signal = more ToxR inhibition = more interaction; parent: est. 0.41; read off a plot
T4 chain: B1 chain

[10] = target: T5, TLR6 transmembrane domain (ToxR chimera); assay: heterotypic ToxR assay; conditions: chain shown with the change; competitor TLR6* (nonfunctional ToxR* chimera); PolyLeu* = 1.0; lower signal = more ToxR inhibition = more interaction; parent: est. 0.24; read off a plot
T5 chain: B5 chain with V14G, S29I

[11] = target: T6, TLR1 transmembrane domain (ToxR chimera); assay: heterotypic ToxR assay; conditions: chain shown with the change; competitor TLR1* (nonfunctional ToxR* chimera); PolyLeu* = 1.0; lower signal = more ToxR inhibition = more interaction; parent: est. 0.47; read off a plot
T6 chain: B5 chain

[12] = target: T7, TLR5 transmembrane domain (ToxR chimera); assay: heterotypic ToxR assay; conditions: chain shown with the change; competitor TLR5* (nonfunctional ToxR* chimera); PolyLeu* = 1.0; lower signal = more ToxR inhibition = more interaction; parent: est. 0.53; read off a plot
T7 chain: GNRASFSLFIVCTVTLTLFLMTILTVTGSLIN

Molecule: TLR2 A597V: TLR2 TMD ToxR construct with point mutation Ala597Val (GNRASALVSGMCCVLFLLILLTGVLCGSLIN; cysteine pairing not given here; also: fused to ToxR activation domain and maltose binding protein, ends not given here)
- Effect of TLR2 point mutation on homotypic interaction [1]: no mutation demonstrated significant difference from the wild type TLR2 TMD
- Effect of TLR2 point mutation on heterotypic interactions [2]: capable of reducing the ToxR inhibition demonstrated by the native TLR2 TMD

Molecule: TLR2 C609I: TLR2 TMD ToxR construct with point mutation Cys609Ile (GNRASALVSGMCCALFLLILLTGVLIGSLIN; cysteine pairing not given here; also: fused to ToxR activation domain and maltose binding protein, ends not given here)
- Effect of TLR2 point mutation on homotypic interaction [1]: no mutation demonstrated significant difference from the wild type TLR2 TMD
- Effect of TLR2 point mutation on heterotypic interactions [2]: capable of reducing the ToxR inhibition demonstrated by the native TLR2 TMD

Molecule: B1
- reduction in signal from the homotypic interaction [3]: > 60%
- reduction in signal from the homotypic interaction [4]: > 60%
- reduction in signal from the homotypic interaction [5]: > 60%

Molecule: B2
- response (normalized Miller units) [6]: 1
- response (normalized Miller units) [7]: 0.8
- response (normalized Miller units) [8]: 1.1
- response (normalized Miller units) [9]: 1.2
- response (normalized Miller units) [10]: 0.82
- response (normalized Miller units) [11]: 1
- response (normalized Miller units) [12]: 1

Molecule: B3
- reduction in signal from the homotypic interaction [3]: > 60%
- reduction in signal from the homotypic interaction [4]: > 60%

Molecule: B4
- response (normalized Miller units) [7]: 0.44
- response (normalized Miller units) [8]: 0.95
- response (normalized Miller units) [9]: 0.5
- response (normalized Miller units) [10]: 0.54
- response (normalized Miller units) [11]: 0.58
- response (normalized Miller units) [12]: 0.48

Molecule: B5
- reduction in signal from the homotypic interaction [3]: > 60%
- reduction in signal from the homotypic interaction [5]: > 60%

Molecule: B6
- reduction in signal from the homotypic interaction [4]: > 60%
- reduction in signal from the homotypic interaction [5]: > 60%
